The text below walks through data of PMC3017759.

Test [1] concerns the target M. musculus (C57BL/6) IL4Rα extracellular domain (M. musculus (C57BL/6)) (UniProt P16382). Put plainly: SPR; BIAcore 2000; about 1400 RU of IL4Rα immobilised on a CM5 chip by amine linkage; graded doses of IL4 in the mobile phase; HBS-EP (10 mM HEPES pH 7.4, 150 mM NaCl, 3 mM EDTA, 0.005% P-20); 25°C; flow 3 μl/min; 1:1 Langmuir fit; average of two independent experiments on two chips.

Test [2] has as its target γc (Homo sapiens) (UniProt P31785). The following applies: cited from earlier work.
Chain of UniProt P31785 (P31785 23-262): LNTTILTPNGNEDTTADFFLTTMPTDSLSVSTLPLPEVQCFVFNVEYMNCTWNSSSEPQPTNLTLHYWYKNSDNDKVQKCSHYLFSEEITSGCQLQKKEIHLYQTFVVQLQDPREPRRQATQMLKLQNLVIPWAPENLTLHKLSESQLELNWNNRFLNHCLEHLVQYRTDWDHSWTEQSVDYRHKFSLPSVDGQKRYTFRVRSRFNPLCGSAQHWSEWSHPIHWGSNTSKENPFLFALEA
For test [3], the target named is IL13Rα1 (Homo sapiens) (UniProt P78552). The following applies: cited from earlier work.
Chain of UniProt P78552 (P78552 22-343): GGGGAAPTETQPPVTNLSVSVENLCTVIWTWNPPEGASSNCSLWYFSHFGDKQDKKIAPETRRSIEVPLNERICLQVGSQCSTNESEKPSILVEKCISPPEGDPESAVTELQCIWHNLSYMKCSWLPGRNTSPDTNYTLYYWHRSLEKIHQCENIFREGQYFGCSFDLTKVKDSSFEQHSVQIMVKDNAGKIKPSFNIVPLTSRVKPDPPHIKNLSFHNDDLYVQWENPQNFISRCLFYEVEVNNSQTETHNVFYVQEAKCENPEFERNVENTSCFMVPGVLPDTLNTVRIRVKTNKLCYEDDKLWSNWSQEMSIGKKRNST
In test [4] the target is IL4Rα (Homo sapiens) (UniProt P24394). The following applies: cited from earlier work.
Chain of UniProt P24394 (P24394 26-232): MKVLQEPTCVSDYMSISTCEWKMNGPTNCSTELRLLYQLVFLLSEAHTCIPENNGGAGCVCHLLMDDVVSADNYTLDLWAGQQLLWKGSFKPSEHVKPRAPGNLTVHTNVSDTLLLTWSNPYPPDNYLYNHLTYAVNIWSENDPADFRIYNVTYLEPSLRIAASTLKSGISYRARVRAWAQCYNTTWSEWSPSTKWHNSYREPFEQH

Chain of UniProt P16382 (P16382 26-233): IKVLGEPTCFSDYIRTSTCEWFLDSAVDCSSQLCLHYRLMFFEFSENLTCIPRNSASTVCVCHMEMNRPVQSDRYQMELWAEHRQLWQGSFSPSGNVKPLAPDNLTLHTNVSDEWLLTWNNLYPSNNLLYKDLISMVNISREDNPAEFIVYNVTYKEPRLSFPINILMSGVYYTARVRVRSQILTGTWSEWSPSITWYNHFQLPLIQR
Chain of IL4 (P05112 25-153): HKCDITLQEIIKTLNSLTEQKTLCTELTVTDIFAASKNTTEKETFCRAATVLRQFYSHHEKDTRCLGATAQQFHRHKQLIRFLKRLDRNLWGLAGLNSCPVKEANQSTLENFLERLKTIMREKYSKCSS

In the case of “recombinant CAST/Ei IL4 (interleukin-4, Mus musculus castaneus allotype) (from UniProt P07750 21-140) (ligand)”, in test [1], the Ka was 4.44e+09 M⁻¹, the Kd was found to be 0.226 nM, the koff was found to be 0.000713 s⁻¹ and the on-rate constant (kon) came out at 3.16e+06 M⁻¹ s⁻¹.

Consider IL4/IL4Rα complex (from UniProt P05112), for which the Kd in test [2] and in test [3] was 500 nM throughout.

In the case of IL4 (from UniProt P05112), the Kd in test [4] is 1 nM.

A word on the Kd: it is the equilibrium constant for the complex coming apart. The koff is the rate constant with which the complex falls apart. For orientation: kon means the second-order rate constant of association. Read a low kon as slower complex formation.
